Laboratory results taken from patent US12365732 (23ANDME, dated 2025).
Positions count from the first letter of the chain named. Names and notes keep the numbering of the source. Read-outs that look alike come from different tables or passages of the source.

T1: hu-CD96 (soluble, isoform 2 extracellular domain) (human, UniProt P40200 22-516, biotinylated in Octet and blocking ELISA)
T1 construct: the assays name only hu-CD96; also called hCD96; biotinylated hu-CD96
T1 sequence: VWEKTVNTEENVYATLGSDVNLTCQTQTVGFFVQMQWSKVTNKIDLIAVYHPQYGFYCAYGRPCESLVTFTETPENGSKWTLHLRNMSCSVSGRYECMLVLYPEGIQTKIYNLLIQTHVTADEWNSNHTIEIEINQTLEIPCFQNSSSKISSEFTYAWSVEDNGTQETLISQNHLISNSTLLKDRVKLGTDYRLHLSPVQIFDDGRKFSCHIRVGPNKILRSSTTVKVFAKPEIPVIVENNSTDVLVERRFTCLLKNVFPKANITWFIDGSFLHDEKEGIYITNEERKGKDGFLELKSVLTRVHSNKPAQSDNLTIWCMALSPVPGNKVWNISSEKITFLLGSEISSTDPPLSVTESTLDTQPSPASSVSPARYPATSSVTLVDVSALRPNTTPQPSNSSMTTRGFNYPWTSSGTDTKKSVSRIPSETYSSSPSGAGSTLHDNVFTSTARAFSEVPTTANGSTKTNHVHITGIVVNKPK

T2: cy-CD96 (soluble, extracellular domain) (cynomolgus monkey, UniProt P40200 22-516 (human entry), biotinylated in Octet and blocking ELISA)
T2 construct: the assays name only cy-CD96; also called biotinylated cy-CD96
T2 chain: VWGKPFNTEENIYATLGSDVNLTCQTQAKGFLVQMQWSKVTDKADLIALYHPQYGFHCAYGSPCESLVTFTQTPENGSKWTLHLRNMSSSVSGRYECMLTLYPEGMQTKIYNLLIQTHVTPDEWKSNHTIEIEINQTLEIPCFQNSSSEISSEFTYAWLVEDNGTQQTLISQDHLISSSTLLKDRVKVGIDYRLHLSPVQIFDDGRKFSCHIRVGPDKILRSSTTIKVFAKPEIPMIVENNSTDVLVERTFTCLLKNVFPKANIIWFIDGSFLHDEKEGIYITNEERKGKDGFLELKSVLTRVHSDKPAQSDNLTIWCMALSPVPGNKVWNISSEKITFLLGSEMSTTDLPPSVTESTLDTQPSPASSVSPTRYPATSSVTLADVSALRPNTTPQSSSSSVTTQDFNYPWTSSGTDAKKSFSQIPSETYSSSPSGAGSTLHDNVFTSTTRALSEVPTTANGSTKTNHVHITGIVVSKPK

B1: mAb1.v7.6 Fab (Fab, V domains shown)
VH: EVQLVQSGAEVKKPGASVKVSCKASGFTFTNRWMHWVRQAPGQGLEWIGMIHVNSGITNINEKFKNRVTMTTDTSTSTAYMELRSLRSEDTAVYYCRSDGLYEGYFDYWGQGTLVTVSS
VL: DIQLTQSPSSLSASVGDRVTITCKASQNVGTAIVWYQQKPGKAPKVLIYSASTRYTGVPSRFSGSGSGTDFTLTISSLQPEDFATYYCQQYSSSPLTFGQGTKVEIK
notes: also called N32R/P52aV/T97L
B2: mAb1.v7.19 Fab (Fab, V domains shown)
VH: B1 VH with R32S, V53P, I60R, L101I
VL: B1 VL
notes: also called N32S/I59R/T97I
B3: mAb1.v7.50 Fab (Fab, V domains shown)
VH: B1 VH with R32N, M34S, V53R, L101V
VL: B1 VL
notes: also called M34S/P52aR/T97V
B4: mAb1.v7.11 Fab (Fab, V domains shown)
VH: B1 VH with R32N, W33F, V53P, I57G, G100E, L101T
VL: B1 VL
notes: Fab with 8xHis tag
B5: mAb1.v7.NGS1 Fab (Fab, V domains shown)
VH: B1 VH with R32N, W33F, V53P, L101T
VL: B1 VL
notes: also called W33F
B6: mAb1.v7.NGS4 Fab (Fab, V domains shown)
VH: B1 VH with R32N, V53P, E62H, L101T
VL: B1 VL
notes: also called E61H
B7: mAb1.v7.59 Fab (Fab, V domains shown)
VH: B1 VH with R32N, M34N, V53P, N59A, S98L, L101T
VL: B1 VL
notes: also called M34N//N58A/S94L
B8: mAb1.v7.NGS7 Fab (Fab, V domains shown)
VH: B1 VH with R32N, V53P, L101V
VL: B1 VL
notes: also called T97V
B9: mAb1.v7.15 Fab (Fab, V domains shown)
VH: B1 VH with R32N, M34D, V53P, N54M, L101F
VL: B1 VL
notes: also called M34D/N53M/T97F
B10: mAb1.v7.NGS2 Fab (Fab, V domains shown)
VH: B1 VH with R32N, M50F, V53P, L101T
VL: B1 VL
notes: also called M50F
B11: mAb1.v7.NGS6 Fab (Fab, V domains shown)
VH: B1 VH with R32N, V53P, L101I
VL: B1 VL
notes: Fab with 8xHis tag; also called T97I
B12: mAb1.v7.NGS3 Fab (Fab, V domains shown)
VH: B1 VH with R32N, V53A, L101T
VL: B1 VL
notes: also called P52aA
B13: mAb1.v7.8 Fab (Fab, V domains shown)
VH: B1 VH with R32N, M34D, V53P, N54L, L101V
VL: B1 VL
notes: also called M34D/N53L/T97V
B14: mAb1.v7.24 Fab (Fab, V domains shown)
VH: B1 VH with R32N, M34G, V53R, L101I
VL: B1 VL
notes: also called M34G/P52aR/T97
B15: mAb1.v7.14 Fab (Fab, V domains shown)
VH: B1 VH with T30V, R32N, V53P, I60T, L101I
VL: B1 VL
notes: also called T30V/I59T/T97I
B16: mAb1.v7.10 Fab (Fab, V domains shown)
VH: B1 VH with R32N, M34R, V53P, N54L, L101V
VL: B1 VL
notes: also called M34R/N53L/T97V
B17: mAb1.v7.NGS5 Fab (Fab, V domains shown)
VH: B1 VH with R32N, V53P, E62R, L101T
VL: B1 VL
notes: also called E61R
B18: mAb1.v7.21 Fab (Fab, V domains shown)
VH: B1 VH with R32Y, V53P, I60M, L101V
VL: B1 VL
notes: also called N32Y/I59M/T97V

Key:
[1] = molecular target: T1, hu-CD96 (soluble, isoform 2 …); experiment: phage competition ELISA, soluble CD96 vs coated hu-CD96
Protocol: (§1) 192 colonies from most stringent selections (biotinylated 0.1 nM of hu-CD96 or cy-CD96 with 1000× non-biotinylated human or cy-CD96) were grown in 400 µL 2YT with 4 µL helper phage M13KO7 overnight at 37° C. with shaking. After spinning down the pellet, the phage supernatant was diluted 1:1 with 2 nM hu-CD96, 20 nM cy-CD96 and ELISA buffer (0.5% BSA and 0.05% TWEEN®20 in PBS) in total […] and incubated for two hours at room temperature with agitation. The […] of mixture was transferred to hu-CD96 coated plate for 15 min to capture unbound phage. The plate was washed with wash buffer (0.05% TWEEN®20 in PBS), and HRP-conjugated anti-M13 antibody (Sino biological, Cat #11973-MM05-H-50) was added in ELISA buffer for 30 min. […] Enzymatic color development was stopped using TMB stop solution (VWR, Cat #95059-200). Plates were analyzed with a SpectraMax i3X plate reader (Molecular Devices). The % inhibition was calculated by the $OD450$ of wells with hu-CD96/cy-CD96 competitor divided by $OD450$ of wells with buffer alone. The lower % inhibition indicated higher phage $IC50$ against hu-CD96 or cy-CD96.
(§2) Selected top inhibition % phage variants from single spot competition were purified from culture supernatants. The optimal phage concentration was incubated with serially-diluted hu-CD96 or cy-CD96 in ELISA buffer in NUNC F plate for two hours. The […] of the mixture was transferred to hu-CD96 coated wells for 15 min to capture unbound phage. The plate was washed with wash buffer (0.05% TWEEN®20 in PBS), and HRP-conjugated anti-M13 antibody (Sino biological, Cat #11973-MM05-H-50) was added in ELISA buffer for 30 min. The plates were washed and developed as described above. The absorbance at 450 nm was plotted as a function of antigen concentration in solution to determine phage $IC50$.

[2] = molecular target: T2, cy-CD96 (soluble, extracellular domain); experiment: as above
Protocol: as §1, §2

[3] = molecular target: T1, hu-CD96 (soluble, isoform 2 …); experiment: BLI (Octet), biotin-CD96 on SA, Fab analyte
Protocol: (§3) The binding affinity of the generated Fab variants of mAb1.v7 for hu-CD96 and cy-CD96 was determined by OCTET (Pall ForteBio) Bio-Layer Interferometry (BLI) binding analysis. The biotinylated hu-CD96 or biotinylated cy-CD96 was diluted to a final concentration 10 µg/mL in experimental buffer (PBS buffer with 0.01% Tween-20) and immobilized on the Streptavidin Capture (SA) biosensors (Pall ForteBio). Three-fold serial dilutions of the mAb1.v7 Fab variants starting at 1 µM as analytes were diluted in the experimental buffer (PBS buffer with 0.01% Tween-20). The biosensors were equilibrated in experimental buffer at 30° C. for ten minutes prior to starting the experiment. The kinetics experiment was performed with the following steps, where the step name, solution and time are listed: Baseline (buffer—60 seconds), Loading (biotinylated antigen—200 seconds), Baseline 2 (buffer—minimum 120 seconds), Association (analyte—200-300 seconds) and Dissociation (buffer—1000 seconds). The resulting BLI signal from analyte association and dissociation from the […] was analyzed using the Octet Data Analysis software (Pall ForteBio). First a reference subtraction was performed on all recorded traces using the reference well (biosensor that underwent same steps as experimental wells but no analyte for the Association step) and then all the traces were aligned to the beginning of the Association step. The entirety of the Association and Dissociation steps were used in a Global fit (minimum of four analyte concentration traces) in a 1:1 binding model to calculate the K_D values for the 16 selected individual mAb1.v7 Fab variants as summarized in Table 9 (below).

[4] = molecular target: T2, cy-CD96 (soluble, extracellular domain); experiment: BLI (Octet), biotin-CD96 on SA, Fab analyte
Protocol: as §3

[5] = molecular target: T1, hu-CD96 (soluble, isoform 2 …); experiment: BLI (Octet), biotin-CD96 on SA, Fab analyte; remark: listed apart in the source
[6] = molecular target: T2, cy-CD96 (soluble, extracellular domain); experiment: BLI (Octet), biotin-CD96 on SA, Fab analyte

Row | Binder | IC50 [1] [nM] | IC50 [2] [nM] | Kd [3] [nM] | Kd [4] [nM] | Kd [5] [nM] | Kd [6] [nM]
1 | B1 | 0.16 | 0.15 | 28.4 | 284 | – | –
2 | B2 | 0.23 | 0.84 | 0.63 | 261 | – | –
3 | B3 | 0.1 | 0.9 | 4.16 | 183 | – | –
4 | B4 | 0.23 | 0.24 | 156 | 175 | – | –
5 | B5 | – | – | – | – | 49 | 271
6 | B6 | – | – | – | – | 31.5 | 739
7 | B7 | 0.1 | 1.6 | ~0.1 | 271 | – | –
8 | B8 | – | – | – | – | 5.61 | 383
9 | B9 | 0.19 | 1.85 | 3 | 160 | – | –
10 | B10 | – | – | – | – | 63 | ~100
11 | B11 | – | – | – | – | 5.32 | 289
12 | B12 | – | – | – | – | 0.1 | ~1000
13 | B13 | 0.17 | 0.45 | 27 | 104 | – | –
14 | B14 | 0.2 | 0.6 | 0.31 | 118 | – | –
15 | B15 | 0.1 | 1 | ~0.1 | 530 | – | –
16 | B16 | 0.19 | 0.76 | 2.71 | 117 | – | –
17 | B17 | – | – | – | – | 43.6 | 85
18 | B18 | 0.15 | 0.91 | 0.31 | 118 | – | –
